From patent US6541450B1, “Parathyroid hormone analogues for the treatment of osteoporosis” (National Research Council of Canada, priority 1994, dated 2003)
Entries after “also recorded” stand apart in the source; their conditions may differ. Where a SMILES comes first, the peptide text is derived from it. Bridges are numbered along the chain shown (N, C = ends). Where no end group is shown, it is not given here. [ ]: non-standard residue; d: D form. Nle = CCCC[C@H](N)C(=O)O

Experiments:
[1] = system: anesthetized female Sprague-Dawley rats; experiment: Hypotensive effect, tail artery pressure in anaesthetized rats
Procedure: Female Sprague-Dawley rats (weighing over 290 g) were anaesthetized with intraperitoneally injected sodium pentobarbital (65 mg/kg body weight). Rectal temperature was monitored with a YS1402 thermistor (Yellow Springs Instrument Co., Inc. Yellow Springs, Ohio) and maintained between 36.0 and 38.5° C. throughout the experiment. Ear pinna temperature was also monitored using a YSi banjo thermistor. The tail artery was exposed to cannulated with a Jelco 25-gIV catheter (Johnson and Johnson Medical Inc., Arlington, Tex.) and connected to a Statham pressure transducer, the signals from which were recorded digitally with a Biopac Systems MP100 Monitor (Harvard Instruments, Saint Laurent, QC, Canada). For intravenous injection of PTH or one of its fragments, a femoral vein was also exposed. After surgery, the rat was allowed to stabilize for 8 min after which PTH or one of its fragments (dissolved in acidified saline containing 0.001 N HCl) was injected into the femoral vein or under the skin of the abdomen. Data were collected for 12 min after intravenous injection or for 22 min after subcutaneous injection.

PTH receptor = PTH receptor (rat (ROS 17/2 rat osteosarcoma cell …, UniProt P25961)); experiment: cell-based or functional assay
[2] = intravenous, 0.8 nmol/100 g of body weight

CC[C@H](C)[C@H](NC(=O)[C@H](CCC(=O)O)NC(=O)[C@H](CO)NC(=O)[C@@H](NC(=O)[C@@H](N)CO)C(C)C)C(=O)N[C@@H](CCC(N)=O)C(=O)N[C@@H](CC(C)C)C(=O)N[C@@H](CCSC)C(=O)N[C@@H](Cc1c[nH]cn1)C(=O)N[C@@H](CC(N)=O)C(=O)N[C@@H](CC(C)C)C(=O)NCC(=O)N[C@@H](CCCCN)C(=O)N[C@@H](Cc1c[nH]cn1)C(=O)N[C@@H](CC(C)C)C(=O)N[C@@H](CC(N)=O)C(=O)N[C@@H](CO)C(=O)N[C@@H](CCSC)C(=O)N[C@@H](CCC(=O)O)C(=O)N[C@@H](CCCNC(=N)N)C(=O)N[C@H](C(=O)N[C@H]1CCC(=O)NCCCC[C@@H](C(=O)N[C@@H](CC(C)C)C(=O)N[C@@H](CC(C)C)C(=O)N[C@@H](CCC(N)=O)C(=O)N[C@@H](CC(=O)O)C(N)=O)NC(=O)[C@H](CCCNC(=N)N)NC(=O)[C@H](CC(C)C)NC(=O)[C@H](Cc2c[nH]c3ccccc23)NC1=O)C(C)C [compound 8, [Leu^27]cyclo(Glu^22Lys^26)-hPTH-(1-30)-NH2] (H-SVSEIQLMHNLGKHLNSMERVEWLRKLLQD-NH2; lactam 22-26)
total blood pressure drop versus other analogues ([1]; subcutaneously or intravenously, 0.8 nmol/100 g of body weight): not significantly different (p>0.05)

hPTH-(7-84) [reference compound]
hypotensive action, in words ([1]; intravenous injection): not significantly hypotensive; also recorded: did not significantly affect tail artery pressure
reduction of tail artery pressure [1, 2]: 3.28±1.0 mm Hg
time to maximum drop in tail artery pressure [1, 2]: 9.8 ± 2.0 min

B1: cyclo(Glu^22-Lys^26)-hPTH-(1-31)-NH2 (peptide)
peptide: SVSEIQLMHNLGKHLNSMERVEWLRKKLQDV-NH2
modifications: lactam 22-26; N-terminus assumed
SMILES: CC[C@H](C)[C@H](NC(=O)[C@H](CCC(=O)O)NC(=O)[C@H](CO)NC(=O)[C@@H](NC(=O)[C@@H](N)CO)C(C)C)C(=O)N[C@@H](CCC(N)=O)C(=O)N[C@@H](CC(C)C)C(=O)N[C@@H](CCSC)C(=O)N[C@@H](Cc1c[nH]cn1)C(=O)N[C@@H](CC(N)=O)C(=O)N[C@@H](CC(C)C)C(=O)NCC(=O)N[C@@H](CCCCN)C(=O)N[C@@H](Cc1c[nH]cn1)C(=O)N[C@@H](CC(C)C)C(=O)N[C@@H](CC(N)=O)C(=O)N[C@@H](CO)C(=O)N[C@@H](CCSC)C(=O)N[C@@H](CCC(=O)O)C(=O)N[C@@H](CCCNC(=N)N)C(=O)N[C@H](C(=O)N[C@H]1CCC(=O)NCCCC[C@@H](C(=O)N[C@@H](CCCCN)C(=O)N[C@@H](CC(C)C)C(=O)N[C@@H](CCC(N)=O)C(=O)N[C@@H](CC(=O)O)C(=O)N[C@H](C(N)=O)C(C)C)NC(=O)[C@H](CCCNC(=N)N)NC(=O)[C@H](CC(C)C)NC(=O)[C@H](Cc2c[nH]c3ccccc23)NC1=O)C(C)C
Adenylyl Cyclase (EC50) (PTH receptor): 17 nM

B2: [Nle^8,18, Leu^27]cyclo(Glu^22-Lys^26)-hPTH-(1-31)-NH2 (peptide)
peptide: SVSEIQL[Nle]HNLGKHLNS[Nle]ERVEWLRKLLQDV-NH2
modifications: lactam 22-26; N-terminus assumed
SMILES: CCCC[C@H](NC(=O)[C@H](CO)NC(=O)[C@H](CC(N)=O)NC(=O)[C@H](CC(C)C)NC(=O)[C@H](Cc1c[nH]cn1)NC(=O)[C@H](CCCCN)NC(=O)CNC(=O)[C@H](CC(C)C)NC(=O)[C@H](CC(N)=O)NC(=O)[C@H](Cc1c[nH]cn1)NC(=O)[C@H](CCCC)NC(=O)[C@H](CC(C)C)NC(=O)[C@H](CCC(N)=O)NC(=O)[C@@H](NC(=O)[C@H](CCC(=O)O)NC(=O)[C@H](CO)NC(=O)[C@@H](NC(=O)[C@@H](N)CO)C(C)C)[C@@H](C)CC)C(=O)N[C@@H](CCC(=O)O)C(=O)N[C@@H](CCCNC(=N)N)C(=O)N[C@H](C(=O)N[C@H]1CCC(=O)NCCCC[C@@H](C(=O)N[C@@H](CC(C)C)C(=O)N[C@@H](CC(C)C)C(=O)N[C@@H](CCC(N)=O)C(=O)N[C@@H](CC(=O)O)C(=O)N[C@H](C(N)=O)C(C)C)NC(=O)[C@H](CCCNC(=N)N)NC(=O)[C@H](CC(C)C)NC(=O)[C@H](Cc2c[nH]c3ccccc23)NC1=O)C(C)C
Adenylyl Cyclase (EC50) (PTH receptor): 6 nM

B3: [Tyr^27]cyclo(Glu^22-Lys^26)-hPTH-(1-31)-NH2 (peptide)
peptide: SVSEIQLMHNLGKHLNSMERVEWLRKYLQDV-NH2
modifications: lactam 22-26; N-terminus assumed
SMILES: CC[C@H](C)[C@H](NC(=O)[C@H](CCC(=O)O)NC(=O)[C@H](CO)NC(=O)[C@@H](NC(=O)[C@@H](N)CO)C(C)C)C(=O)N[C@@H](CCC(N)=O)C(=O)N[C@@H](CC(C)C)C(=O)N[C@@H](CCSC)C(=O)N[C@@H](Cc1c[nH]cn1)C(=O)N[C@@H](CC(N)=O)C(=O)N[C@@H](CC(C)C)C(=O)NCC(=O)N[C@@H](CCCCN)C(=O)N[C@@H](Cc1c[nH]cn1)C(=O)N[C@@H](CC(C)C)C(=O)N[C@@H](CC(N)=O)C(=O)N[C@@H](CO)C(=O)N[C@@H](CCSC)C(=O)N[C@@H](CCC(=O)O)C(=O)N[C@@H](CCCNC(=N)N)C(=O)N[C@H](C(=O)N[C@H]1CCC(=O)NCCCC[C@@H](C(=O)N[C@@H](Cc2ccc(O)cc2)C(=O)N[C@@H](CC(C)C)C(=O)N[C@@H](CCC(N)=O)C(=O)N[C@@H](CC(=O)O)C(=O)N[C@H](C(N)=O)C(C)C)NC(=O)[C@H](CCCNC(=N)N)NC(=O)[C@H](CC(C)C)NC(=O)[C@H](Cc2c[nH]c3ccccc23)NC1=O)C(C)C
Adenylyl Cyclase (EC50) (PTH receptor): 9 nM

B4: [Nle^27]cyclo(Glu^22-Lys^26)-hPTH-(1-31)-NH2 (peptide)
peptide: SVSEIQLMHNLGKHLNSMERVEWLRK[Nle]LQDV-NH2
modifications: lactam 22-26; N-terminus assumed
SMILES: CCCC[C@H](NC(=O)[C@@H]1CCCCNC(=O)CC[C@H](NC(=O)[C@@H](NC(=O)[C@H](CCCNC(=N)N)NC(=O)[C@H](CCC(=O)O)NC(=O)[C@H](CCSC)NC(=O)[C@H](CO)NC(=O)[C@H](CC(N)=O)NC(=O)[C@H](CC(C)C)NC(=O)[C@H](Cc2c[nH]cn2)NC(=O)[C@H](CCCCN)NC(=O)CNC(=O)[C@H](CC(C)C)NC(=O)[C@H](CC(N)=O)NC(=O)[C@H](Cc2c[nH]cn2)NC(=O)[C@H](CCSC)NC(=O)[C@H](CC(C)C)NC(=O)[C@H](CCC(N)=O)NC(=O)[C@@H](NC(=O)[C@H](CCC(=O)O)NC(=O)[C@H](CO)NC(=O)[C@@H](NC(=O)[C@@H](N)CO)C(C)C)[C@@H](C)CC)C(C)C)C(=O)N[C@@H](Cc2c[nH]c3ccccc23)C(=O)N[C@@H](CC(C)C)C(=O)N[C@@H](CCCNC(=N)N)C(=O)N1)C(=O)N[C@@H](CC(C)C)C(=O)N[C@@H](CCC(N)=O)C(=O)N[C@@H](CC(=O)O)C(=O)N[C@H](C(N)=O)C(C)C
Adenylyl Cyclase (EC50) (PTH receptor): 9 nM

B5: [Ile^27]cyclo(Glu^22-Lys^26)-hPTH-(1-31)-NH2 (peptide)
peptide: SVSEIQLMHNLGKHLNSMERVEWLRKILQDV-NH2
modifications: lactam 22-26; N-terminus assumed
SMILES: CC[C@H](C)[C@H](NC(=O)[C@@H]1CCCCNC(=O)CC[C@H](NC(=O)[C@@H](NC(=O)[C@H](CCCNC(=N)N)NC(=O)[C@H](CCC(=O)O)NC(=O)[C@H](CCSC)NC(=O)[C@H](CO)NC(=O)[C@H](CC(N)=O)NC(=O)[C@H](CC(C)C)NC(=O)[C@H](Cc2c[nH]cn2)NC(=O)[C@H](CCCCN)NC(=O)CNC(=O)[C@H](CC(C)C)NC(=O)[C@H](CC(N)=O)NC(=O)[C@H](Cc2c[nH]cn2)NC(=O)[C@H](CCSC)NC(=O)[C@H](CC(C)C)NC(=O)[C@H](CCC(N)=O)NC(=O)[C@@H](NC(=O)[C@H](CCC(=O)O)NC(=O)[C@H](CO)NC(=O)[C@@H](NC(=O)[C@@H](N)CO)C(C)C)[C@@H](C)CC)C(C)C)C(=O)N[C@@H](Cc2c[nH]c3ccccc23)C(=O)N[C@@H](CC(C)C)C(=O)N[C@@H](CCCNC(=N)N)C(=O)N1)C(=O)N[C@@H](CC(C)C)C(=O)N[C@@H](CCC(N)=O)C(=O)N[C@@H](CC(=O)O)C(=O)N[C@H](C(N)=O)C(C)C
Adenylyl Cyclase (EC50) (PTH receptor): 9 nM

B6: α-acetyl-[Leu^27]cyclo(Glu^22-Lys^26)-hPTH-(1-31)-NH2 (peptide)
peptide: Ac-SVSEIQLMHNLGKHLNSMERVEWLRKLLQDV-NH2
modifications: lactam 22-26
SMILES: CC[C@H](C)[C@H](NC(=O)[C@H](CCC(=O)O)NC(=O)[C@H](CO)NC(=O)[C@@H](NC(=O)[C@H](CO)NC(C)=O)C(C)C)C(=O)N[C@@H](CCC(N)=O)C(=O)N[C@@H](CC(C)C)C(=O)N[C@@H](CCSC)C(=O)N[C@@H](Cc1c[nH]cn1)C(=O)N[C@@H](CC(N)=O)C(=O)N[C@@H](CC(C)C)C(=O)NCC(=O)N[C@@H](CCCCN)C(=O)N[C@@H](Cc1c[nH]cn1)C(=O)N[C@@H](CC(C)C)C(=O)N[C@@H](CC(N)=O)C(=O)N[C@@H](CO)C(=O)N[C@@H](CCSC)C(=O)N[C@@H](CCC(=O)O)C(=O)N[C@@H](CCCNC(=N)N)C(=O)N[C@H](C(=O)N[C@H]1CCC(=O)NCCCC[C@@H](C(=O)N[C@@H](CC(C)C)C(=O)N[C@@H](CC(C)C)C(=O)N[C@@H](CCC(N)=O)C(=O)N[C@@H](CC(=O)O)C(=O)N[C@H](C(N)=O)C(C)C)NC(=O)[C@H](CCCNC(=N)N)NC(=O)[C@H](CC(C)C)NC(=O)[C@H](Cc2c[nH]c3ccccc23)NC1=O)C(C)C
Adenylyl Cyclase (EC50) (PTH receptor): 24 nM

B7: hPTH-(1-31)-NH2 (peptide)
peptide: SVSEIQLMHNLGKHLNSMERVEWLRKKLQDV-NH2
Adenylyl Cyclase (EC50) (PTH receptor): 20 nM

B8: [Ala^27]cyclo(Glu^22-Lys^26)-hPTH-(1-31)-NH2 (peptide)
peptide: SVSEIQLMHNLGKHLNSMERVEWLRKALQDV-NH2
modifications: lactam 22-26; N-terminus assumed
SMILES: CC[C@H](C)[C@H](NC(=O)[C@H](CCC(=O)O)NC(=O)[C@H](CO)NC(=O)[C@@H](NC(=O)[C@@H](N)CO)C(C)C)C(=O)N[C@@H](CCC(N)=O)C(=O)N[C@@H](CC(C)C)C(=O)N[C@@H](CCSC)C(=O)N[C@@H](Cc1c[nH]cn1)C(=O)N[C@@H](CC(N)=O)C(=O)N[C@@H](CC(C)C)C(=O)NCC(=O)N[C@@H](CCCCN)C(=O)N[C@@H](Cc1c[nH]cn1)C(=O)N[C@@H](CC(C)C)C(=O)N[C@@H](CC(N)=O)C(=O)N[C@@H](CO)C(=O)N[C@@H](CCSC)C(=O)N[C@@H](CCC(=O)O)C(=O)N[C@@H](CCCNC(=N)N)C(=O)N[C@H](C(=O)N[C@H]1CCC(=O)NCCCC[C@@H](C(=O)N[C@@H](C)C(=O)N[C@@H](CC(C)C)C(=O)N[C@@H](CCC(N)=O)C(=O)N[C@@H](CC(=O)O)C(=O)N[C@H](C(N)=O)C(C)C)NC(=O)[C@H](CCCNC(=N)N)NC(=O)[C@H](CC(C)C)NC(=O)[C@H](Cc2c[nH]c3ccccc23)NC1=O)C(C)C
Adenylyl Cyclase (EC50) (PTH receptor): 9 nM
